Measured values taken from FireProtDB (doi:10.1006/jmbi.1995.0616).

B1: Subtilisin-chymotrypsin inhibitor-2A, P01053 (parent)
chain: MSSVEKKPEGVNTGAGDRHNLKTEWPELVGKSVEEAKKVILQDKPEAQIIVLPVGTIVTMEYRIDRVRLFVDKLDNIAQVPRVG

Variants of: B1
Details: Hordeum vulgare; pH 6.25; 25 °C; GdnHCl; Fluorescence; MES 50 mM; reversible: yes; structure 2CI2; whole UniProt chain shown

Variant	ddG of mutation (higher = less stable) [kcal/mol]	denaturant m value [kcal/mol/M]	denaturant midpoint (higher = more stable) [M]	unfolding free energy [kcal/mol]
P81A	3.5	1.8	2.28	4.1
L52I	1.01	1.7	3.87	6.59
L52V	1.02	1.76	3.74	6.58
L52A	1.74	2.11	2.78	5.86
L41G	2.09	1.68	3.29	5.51
L41A	1.21	1.93	3.32	6.39
K73N	1.21	1.6	4	6.39
K38A	0.99	1.61	4.11	6.61
K38G	1.58	1.73	3.49	6.02
L52A F70A	5.16	1.59	1.53	2.44
L52A F70L	3.25	1.94	2.24	4.35
L52V V58A F70L	2.84	1.83	2.6	4.76
R63A	1.02	1.78	3.7	6.58
L52V F70L	1.08	2.37	2.75	6.52
L52V F70A	3.26	1.94	2.24	4.34
I57A	1.28	1.59	3.98	6.32
Q42G	0.92	1.81	3.69	6.68
Q42A	0.54	1.77	3.99	7.06
V58A V80A	3.78	2.19	1.75	3.82
V58A	0.67	2.14	3.24	6.93
L52A V58A F70L	3.34	1.93	2.21	4.26

Variant	ddG of mutation (higher = less stable) [kcal/mol]	denaturant m value [kcal/mol/M]	denaturant midpoint (higher = more stable) [M]	unfolding free energy [kcal/mol]
S32A	1.02	1.86	3.54	6.58
S32G	0.06	2.1	3.59	7.54
V58A F70L	2.2	2.02	2.67	5.4
S32A E34A E35A	0.75	2.18	3.14	6.85
K22A E27A	1.17	1.87	3.43	6.43
E46A	0.78	1.78	3.83	6.82
E35Q	0.68	1.84	3.76	6.92
E35N	0.08	2.18	3.45	7.52
E35D	-0.36	2.2	3.62	7.96
T56A	1.42	1.5	4.12	6.18
T56V	1.57	1.67	3.61	6.03
T56S	0.98	1.66	3.99	6.62
A36G	1.41	1.8	3.44	6.19
K44A	1.85	1.57	3.67	5.75
P26A A36G	1.3	2.39	2.64	6.3
P45A	1.22	2.07	3.09	6.38
L52A V58A	2.95	1.96	2.37	4.65
D43A	1.05	1.87	3.51	6.55
K31A	1.2	1.52	4.22	6.4
Q48M M60L	0.18	1.78	4.16	7.42
D72A	3.14	1.99	2.24	4.46

Variant	ddG of mutation (higher = less stable) [kcal/mol]	denaturant m value [kcal/mol/M]	denaturant midpoint (higher = more stable) [M]	unfolding free energy [kcal/mol]
I40V	0.97	1.99	3.33	6.63
S32G E34A E35A	0.81	2.15	3.16	6.79
L52V V58A	1.93	1.86	3.05	5.67
P26A		3.46	3.19	
E34Q	0.4	1.87	3.85	7.2
E34D	0.77	1.83	3.73	6.83
E34N	0.28	2.01	3.64	7.32
R63A D65A	2.46	1.53	3.37	5.14
E34A E35A	-0.02	2.11	3.61	7.62
K37A	1.13	1.73	3.75	6.47
K37G	2.01	1.99	2.8	5.59
E27A	1.03	1.75	3.76	6.57
E27Q	0.57	1.91	3.68	7.03
E61A	1.12	1.78	3.64	6.48
P53A	0.58	1.79	3.91	7.02
V39A	0.06	2.01	3.75	7.54
D65A	1.02	1.83	3.59	6.58
F70A	3.21	2.17	2.02	4.39
F70V	1.41	2.24	2.77	6.19
F70L	1.92	1.95	2.91	5.68
K22A	1.04	1.77	3.72	6.56
